B1: DYRK1B (parent)
chain: YQGPGTRRLQEVLGVQTGGPGGRR
B2: LMNB1 (parent)
chain: LYKEELEQTYHAKLENARLSSEMN

Variants of: B1
Assay: protein stability index of a GFP-peptide fusion (GPS, HEK-293T) (PSI 1-6); higher = more stable
Conditions: c terminus: a fixed tail appended
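Also: lentivirally expressed fusions sorted by FACS into six bins by GFP to DsRed ratio, PSI derived from sequencing read proportions per bin multiplied by bin number.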

Protein stability index of substitutions, site by site:
G19: D 3.58 | F 3.33 | P 3.66 | C 2.87 | A 3.34 | S 2.81 | Y 2.9 | V 3.19 | R 2.47 | K 3.43 | H 2.98 | W 2.14
Q16: A 2.81 | M 2.98 | W 2.26 | G 3.42 | F 2.01 | T 2.78 | Y 3.19 | K 3.55 | L 2.96 | E 3.39 | P 2.77 | S 2.82 | H 3.75
R24: H 3.17 | Y 3.24 | T 3.02 | K 3.12 | Q 3.06 | L 2.87 | W 2.73 | M 2.5 | A 3.23 | V 3.54 | N 3.43 | P 3.45 | E 3.67 | S 3.45
R8: S 3.73 | C 2.21 | N 3.45 | L 1.91 | G 3.14 | W 3.27 | E 4.51 | Q 3.67 | I 2.75 | H 4.21 | A 3.24 | P 3.49 | K 2.9 | D 3.55
L9: R 3.9 | D 3.94 | P 4 | I 2.97 | C 3.21 | N 3.61 | Q 4.31 | M 3.71
T6: F 2.88 | V 3.02 | P 3.04 | R 3.51 | H 2.67 | D 3.79 | N 2.68 | A 2.71 | G 3.32 | I 2.87 | M 3.28
G5: R 2.58 | P 2.8 | Y 2.34 | A 3.44 | W 1.08 | Q 4.42 | D 3.69 | I 2.76 | S 3.42 | E 3.74 | V 3.4 | F 1.92 | C 3.38
G21: Q 3.4 | R 3.32 | T 2.98 | N 3.04 | C 2.72 | I 3.15 | H 3.33 | E 3.13 | K 2.74 | M 3.48
E11: A 2.57 | P 2.73 | R 2.88 | I 1.97 | Q 2.68 | L 2.28 | D 3.39 | S 3 | C 2.44 | M 2.81
V15: K 3.01 | T 2.96 | G 3.63 | Q 4 | N 3.81 | R 3.34 | F 3.62 | A 3.69 | S 3.59 | L 2.68 | C 2.82 | Y 2.92 | W 3.1
G22: C 2.87 | V 2.95 | E 3.4 | M 2.67 | W 3.01 | P 3.48 | I 3.75 | N 3.44 | K 2.51 | L 2.94 | Y 2.63 | Q 3.48
L13: F 2.9 | Q 3.89 | M 3.31 | W 1.67 | V 3.68 | C 3.88 | Y 3.63 | A 3.58 | G 3.9 | S 4.07 | N 3.85
T17: P 3.5 | M 3.24 | K 3.24 | Y 3.11 | G 3.66 | E 3.44 | N 3.83 | I 2.75 | L 3.3 | V 3.62 | H 3.69 | Q 3.47 | W 2.49 | R 2.8 | A 3.27 | F 2.85
R7: M 3.21 | P 3.5 | K 3.06 | H 3.42 | D 3.7 | Q 3.76 | Y 3.1 | V 3.03 | I 3.57
P20: Y 2.77 | I 2.84 | N 3.1 | A 3.22 | V 2.76 | H 2.81 | R 3.39 | Q 3.16
V12: Y 3.05 | Q 3.5 | F 2.94 | C 3.26 | T 3.75 | D 4.34 | N 3.81 | L 3.19 | H 3.66 | I 3.58 | W 2.92 | E 3.66
G18: K 2.6 | L 2.74 | T 3.51 | D 4.02 | S 3.15 | N 3.34 | A 3 | Y 2.94 | V 3.06 | I 2.4 | C 3.07 | Q 3.68
Y1: W 3.9 | A 4.7 | S 4.96 | Q 4.04 | H 4.78 | G 4.41 | F 3.84 | E 4.83 | R 4.22 | I 4.33
P4: M 1.91 | W 1.76 | E 3.3 | N 2.69 | H 2.79 | D 2.81 | A 3.01 | V 3.14 | I 2.58 | Q 2.88 | F 1.68
Q10: E 3.82 | M 2.82 | S 3.57 | I 2.66 | P 4.21 | A 1.95 | H 2.98 | K 3.3
R23: I 2.75 | Y 2.67 | D 3.8 | Q 3.38 | P 3.26 | G 3.01 | C 2.87 | N 3.29 | K 2.55 | L 3.12 | M 3.27 | E 3.32 | S 2.59 | A 4.05 | F 2.37
G14: L 2.75 | F 2.66 | T 2.66 | K 2.9 | M 3.25 | H 3.62 | Q 3.72 | V 3.14 | N 4.25 | A 2.92 | C 1.55 | Y 2.98 | E 3.73 | I 2.14 | D 4.18
Q2: Y 3.7 | N 2.26 | R 3.87 | F 3.22 | E 4.23 | L 2.5 | H 2.26 | M 3.83 | I 2.52 | C 2.66 | W 2.95 | T 3.12
G3: I 2.98 | A 3.31 | H 3.81 | D 3.83 | F 2.77 | E 4.32 | K 2.79 | V 2.38 | Y 2.48 | L 3.23 | Q 3.11 | M 3.03 | C 3.58 | S 3.44 | N 3.71

Variants of: B2
Assay: as above
Conditions: c terminus: a fixed tail appended

Protein stability index: each site, then its substitutions
E22: M 2.58 | N 3.3 | K 2.61 | W 1.74 | L 2.68 | Y 2.4 | T 2.35 | P 2.4 | Q 2.73 | S 3.44 | V 2.42 | R 2.88
M23: T 2.52 | N 2.95 | Y 1.6 | S 2.87 | A 3.24 | H 2.94 | W 2.58 | P 2.67 | L 2.19 | K 3.28 | V 2.46 | G 2.8 | F 2.42 | D 2.82 | I 2.6 | Q 3.04 | R 3.21 | E 2.89 | C 2.76
N24: T 2.46 | A 2.43 | K 2.33 | I 2.48 | P 2.17 | F 1.88 | G 3.47 | R 3.11 | W 1.79 | L 2.51 | V 2.26 | E 3.25 | Y 2.27 | H 3.28 | C 2.33 | M 2.6 | S 2.64 | D 3.25 | Q 3.04

From the supplement of paper PMC10567573
